22 molecules from US20240270846A1 (published 2024) can be followed below.

Residue numbers refer to the chain shown, from its start. Names may count otherwise.

This assay addresses T1, CD3 epsilon homodimer protein (UniProt P07766 23-126).
T1 construct: Construct of the homodimer is not described; also called CD3 (CD3 epsilon)
Put plainly: SPR Biacore T200, CD3e homodimer on chip, antibody analyte.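 Note: CD3 epsilon homodimer amine-coupled on CM4 sensor chip, antibodies injected as analyte at 25 °C in HBS-EP+, ratio ≥0.8 taken as binding retained versus unaltered parent antibody.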

T1 sequence (P07766 23-126): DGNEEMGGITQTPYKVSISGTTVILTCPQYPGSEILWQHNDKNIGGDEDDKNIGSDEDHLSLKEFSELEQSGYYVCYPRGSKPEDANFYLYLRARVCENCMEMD

B1: GLS3000 K74T one-arm antibody (antibody, human IgG1, kappa, L234A L235A, N297A, name in Kabat numbering)
light: DIVMTQSPLSLPVTPGEPASISCRSSQSLVHSNRNTYLHWYQQKPGQAPRLLIYKVSNRFSGVPDRFSGSGSGTDFTLTISRVEAEDVGVYYCGQGTQVPYTFGQGTKLEIKRTVAAPSVFIFPPSDEQLKSGTASVVCLLNNFYPREAKVQWKVDNALQSGNSQESVTEQDSKDSTYSLSSTLTLSKADYEKHKVYACEVTHQGLSSPVTKSFNRGEC
heavy: QVQLVESGGGVVQPGRSLRLSCAASGFTFSNAWMHWVRQAPGKGLEWVAQIKAKSNNYATYYAESVKGRFTISRDDSKNSLYLQMNSLKTEDTAVYYCRYVHYGAYYGVDAWGQGTTVTVSSASTKGPSVFPLAPSSKSTSGGTAALGCLVKDYFPEPVTVSWNSGALTSGVHTFPAVLQSSGLYSLSSVVTVPSSSLGTQTYICNVNHKPSNTKVDKKVEPKSCDKTHTCPPCPAPEAAGGPSVFLFPPKPKDTLMISRTPEVTCVVVDVSHEDPEVKFNWYVDGVEVHNAKTKPREEQYASTYRVVSVLTVLHQDWLNGKEYKCKVSNKALPAPIEKTISKAKGQPREPQVYTLPPSRCELTKNQVSLSCAVKGFYPSDIAVEWESNGQPENNYKTTPPVLDSDGSFFLVSKLTVDKSRWQQGNVFSCSVMHEALHNHYTQKSLSLSPDYKDDDDK
chain: EPKSSDKTHTCPPCPAPELLGGPSVFLFPPKPKDTLMISRTPEVTCVVVDVSHEDPEVKFNWYVDGVEVHNAKTKPREEQYNSTYRVVSVLTVLHQDWLNGKEYKCKVSNKALPAPIEKTISKAKGQPREPQVCTLPPSRDELTKNQVSLWCLVKGFYPSDIAVEWESNGQPENNYKTTPPVLDSDGSFFLYSKLTVDKSRWQQGNVFSCSVMHEALHNRYTQKSLSLSP
With B1, the “ratio of amounts bound (altered form/GLS3000)” value is 0.84.

B2: GLS3000 N53I one-arm antibody (antibody, human IgG1, kappa, L234A L235A, N297A, name in Kabat numbering)
light: B1 light with N58I, T79K
heavy: B1 heavy
chain: B1 chain
Regarding B2, the “ratio of amounts bound (altered form/GLS3000)” value stood at 0.5.

B3: GLS3000 N53P one-arm antibody (antibody, human IgG1, kappa, L234A L235A, N297A, name in Kabat numbering)
light: B1 light with N58P, T79K
heavy: B1 heavy
chain: B1 chain
Consider B3, for which the “ratio of amounts bound (altered form/GLS3000)” value came out at 0.81.

B4: GLS3000 L33I one-arm antibody (antibody, human IgG1, kappa, L234A L235A, N297A, name in Kabat numbering)
light: B1 light with L38I, T79K
heavy: B1 heavy
chain: B1 chain
Regarding B4, the “ratio of amounts bound (altered form/GLS3000)” value was determined as 0.83.

B5: GLS3000 N53S one-arm antibody (antibody, human IgG1, kappa, L234A L235A, N297A, name in Kabat numbering)
light: B1 light with N58S, T79K
heavy: B1 heavy
chain: B1 chain
On to B5, for which the “ratio of amounts bound (altered form/GLS3000)” value amounted to 0.69.

B6: GLS3000 N53M one-arm antibody (antibody, human IgG1, kappa, L234A L235A, N297A, name in Kabat numbering)
light: B1 light with N58M, T79K
heavy: B1 heavy
chain: B1 chain
As for B6, the “ratio of amounts bound (altered form/GLS3000)” value came out at 0.62.

B7: GLS3000 N53L one-arm antibody (antibody, human IgG1, kappa, L234A L235A, N297A, name in Kabat numbering)
light: B1 light with N58L, T79K
heavy: B1 heavy
chain: B1 chain
Regarding B7, the “ratio of amounts bound (altered form/GLS3000)” value was found to be 0.56.

B8: GLS3000 N53R one-arm antibody (antibody, human IgG1, kappa, L234A L235A, N297A, name in Kabat numbering)
light: B1 light with N58R, T79K
heavy: B1 heavy
chain: B1 chain
Consider B8, for which the “ratio of amounts bound (altered form/GLS3000)” value is 1.58.

B9: GLS3000 K107E one-arm antibody (antibody, human IgG1, kappa, L234A L235A, N297A, name in Kabat numbering)
light: B1 light with T79K, K112E
heavy: B1 heavy
chain: B1 chain
On to B9, for which the “ratio of amounts bound (altered form/GLS3000)” value stood at 0.94.

B10: GLS3000 N53T one-arm antibody (antibody, human IgG1, kappa, L234A L235A, N297A, name in Kabat numbering)
light: B1 light with N58T, T79K
heavy: B1 heavy
chain: B1 chain
Take B10: the “ratio of amounts bound (altered form/GLS3000)” value came out at 0.56.

B11: GLS3000 N53Q one-arm antibody (antibody, human IgG1, kappa, L234A L235A, N297A, name in Kabat numbering)
light: B1 light with N58Q, T79K
heavy: B1 heavy
chain: B1 chain
Consider B11, for which the “ratio of amounts bound (altered form/GLS3000)” value was 0.77.

B12: GLS3000 N53E one-arm antibody (antibody, human IgG1, kappa, L234A L235A, N297A, name in Kabat numbering)
light: B1 light with N58E, T79K
heavy: B1 heavy
chain: B1 chain
In the case of B12, the “ratio of amounts bound (altered form/GLS3000)” value turned out to be 0.54.

B13: GLS3000 L33E one-arm antibody (antibody, human IgG1, kappa, L234A L235A, N297A, name in Kabat numbering)
light: B1 light with L38E, T79K
heavy: B1 heavy
chain: B1 chain
Turning to B13, the “ratio of amounts bound (altered form/GLS3000)” value was 0.72.

B14: GLS3000 N53F one-arm antibody (antibody, human IgG1, kappa, L234A L235A, N297A, name in Kabat numbering)
light: B1 light with N58F, T79K
heavy: B1 heavy
chain: B1 chain
Take B14: the “ratio of amounts bound (altered form/GLS3000)” value worked out at 0.69.

B15: GLS3000 N53V one-arm antibody (antibody, human IgG1, kappa, L234A L235A, N297A, name in Kabat numbering)
light: B1 light with N58V, T79K
heavy: B1 heavy
chain: B1 chain
On to B15, for which the “ratio of amounts bound (altered form/GLS3000)” value is 0.56.

B16: GLS3000 N53G one-arm antibody (antibody, human IgG1, kappa, L234A L235A, N297A, name in Kabat numbering)
light: B1 light with N58G, T79K
heavy: B1 heavy
chain: B1 chain
For the molecule B16, the “ratio of amounts bound (altered form/GLS3000)” value is 0.76.

B17: GLS3000 L33V one-arm antibody (antibody, human IgG1, kappa, L234A L235A, N297A, name in Kabat numbering)
light: B1 light with L38V, T79K
heavy: B1 heavy
chain: B1 chain
For the molecule B17, the “ratio of amounts bound (altered form/GLS3000)” value was found to be 1.05.

B18: GLS3000 N53K one-arm antibody (antibody, human IgG1, kappa, L234A L235A, N297A, name in Kabat numbering)
light: B1 light with N58K, T79K
heavy: B1 heavy
chain: B1 chain
Consider B18, for which the “ratio of amounts bound (altered form/GLS3000)” value came out at 1.08.

B19: GLS3000 N53H one-arm antibody (antibody, human IgG1, kappa, L234A L235A, N297A, name in Kabat numbering)
light: B1 light with N58H, T79K
heavy: B1 heavy
chain: B1 chain
As to B19, the “ratio of amounts bound (altered form/GLS3000)” value was determined as 1.18.

B20: GLS3000 L33M one-arm antibody (antibody, human IgG1, kappa, L234A L235A, N297A, name in Kabat numbering)
light: B1 light with L38M, T79K
heavy: B1 heavy
chain: B1 chain
With B20, the “ratio of amounts bound (altered form/GLS3000)” value came out at 0.93.

B21: GLS3000 L33P one-arm antibody (antibody, human IgG1, kappa, L234A L235A, N297A, name in Kabat numbering)
light: B1 light with L38P, T79K
heavy: B1 heavy
chain: B1 chain
Regarding B21, the “ratio of amounts bound (altered form/GLS3000)” value was found to be 0.3.

B22: GLS3000 L33F one-arm antibody (antibody, human IgG1, kappa, L234A L235A, N297A, name in Kabat numbering)
light: B1 light with L38F, T79K
heavy: B1 heavy
chain: B1 chain
As to B22, the “ratio of amounts bound (altered form/GLS3000)” value is 0.78.
